Where “and” joins values, the source holds several entries; their conditions need not be identical. Identical values can stand only once.
Legend:
[1] = target: LY6C1 (Ly6c1, C57BL/6J mouse, splice variant 1) (mouse (C57BL/6J)) (UniProt P0CW02); test: AAV library bound to Ly6c1-transfected HEK293T cells, NGS
[2] = target: LY6A (Ly6a, C57BL/6J mouse) (mouse (C57BL/6J)) (UniProt P05533); test: AAV library bound to Ly6a-transfected HEK293T cells, NGS
UniProt P05533, sequence (P05533 27-112 limits assumed): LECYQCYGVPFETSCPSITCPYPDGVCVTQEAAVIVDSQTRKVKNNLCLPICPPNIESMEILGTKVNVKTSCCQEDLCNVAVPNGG

UniProt P0CW02, sequence (P0CW02 27-109 limits assumed, change not shown): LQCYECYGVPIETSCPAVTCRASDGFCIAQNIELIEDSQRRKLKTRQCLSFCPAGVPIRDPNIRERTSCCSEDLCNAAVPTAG

Substance	fold enrichment (log2) [1]	fold enrichment (log2) [2]
AAV9 K449R 7-mer variant TKSTPFI	-1.85 log2	2.6 log2
AAV9 K449R 7-mer variant DKQKPFL	0.94 log2	4.6 log2
AAV9 K449R 7-mer variant MRTLMSS	3.85 log2	-0.52 log2
AAV9 K449R 7-mer variant NLKRPFA	0.85 log2	2.8 log2
AAV9 K449R 7-mer variant RLSFKDV	-1.62 log2	2.39 log2
AAV9 K449R 7-mer variant AADRPFL	-3.32 log2	2.73 log2
AAV9 K449R 7-mer variant GSERPFL	-4.2 log2	3.78 log2
AAV9 K449R 7-mer variant SKTGYST	4.43 log2	-3.55 log2
AAV9 K449R 7-mer variant SKGSYST	2.74 log2	1.54 log2
AAV9 K449R 7-mer variant VTHGYSS	3.25 log2	-0.84 log2
AAV9 K449R 7-mer variant LYAGRSS	4.13 log2	1.03 log2
AAV9 K449R 7-mer variant LRMGASS	4.17 log2	0.91 log2
AAV9 K449R 7-mer variant ASSKPFL	1.19 log2	3.9 log2
AAV9 K449R 7-mer variant IRVGYST	3.46 log2	-3.55 log2
AAV9 K449R 7-mer variant GDNRPFK	0.57 log2	2.65 log2
AAV9 K449R 7-mer variant AKAGYAS	4.54 log2	-0.03 log2
AAV9 K449R 7-mer variant ESSKPFR	1.28 log2	3.15 log2
AAV9 K449R 7-mer variant GGRGLSS	4.9 log2	2 log2
AAV9 K449R 7-mer variant HNVFKNP	0.33 log2	2.09 log2
AAV9 K449R 7-mer variant KQYQGST	4.88 log2	1.54 log2
AAV9 K449R 7-mer variant TVMAPFK	-0.19 log2	5.53 log2
AAV9 K449R 7-mer variant DTKWSSS	4.11 log2	0.53 log2
AAV9 K449R 7-mer variant RATGYSS	4.75 log2	2.49 log2

Substance	fold enrichment (log2) [1]	fold enrichment (log2) [2]
AAV9 K449R 7-mer variant DSQRPFI	-3.55 log2	2.63 log2
AAV9 K449R 7-mer variant TITFKDV	-0.78 log2	5.15 log2
AAV9 K449R 7-mer variant DMERPFK	-3.91 log2	4.51 log2
AAV9 K449R 7-mer variant IDRGYSV	5.3 log2	-1.04 log2
AAV9 K449R 7-mer variant GESRPFI	-2.08 log2	3.32 log2
AAV9 K449R 7-mer variant FLPGYSS	2.54 log2	-2.29 log2
AAV9 K449R 7-mer variant TRFGAST	4.32 log2	0 log2
AAV9 K449R 7-mer variant LKKGYST	2.96 log2	1.72 log2
AAV9 K449R 7-mer variant KDKFKDI	-2.08 log2	3.38 log2
AAV9 K449R 7-mer variant EDHRYSS	3.4 log2	0.17 log2
AAV9 K449R 7-mer variant ESTRPFK	0.28 log2	2.87 log2
AAV9 K449R 7-mer variant QDKGYSS	2.61 log2	-3.55 log2
AAV9 K449R 7-mer variant LSKGLSS	3.55 log2	-3.55 log2
AAV9 K449R 7-mer variant LNRGSST	4.15 log2	1.72 log2
AAV9 K449R 7-mer variant DRIHGYS	4.34 log2	-0.11 log2
AAV9 K449R 7-mer variant HEHRYST	3.06 log2	-4.06 log2
AAV9 K449R 7-mer variant HKTHYSS	3.24 log2	0.86 log2
AAV9 K449R 7-mer variant SINKPFV	-0.3 log2	4.74 log2
AAV9 K449R 7-mer variant YVGNPFK	0.58 log2	4.53 log2
AAV9 K449R 7-mer variant SIARPFV	-3.55 log2	3.79 log2
AAV9 K449R 7-mer variant LLRGASS	2.96 log2	-0.33 log2
AAV9 K449R 7-mer variant TVTGYSS	3.22 log2	-3.91 log2
AAV9 K449R 7-mer variant STRGYSA	3.55 log2	1.08 log2

Substance	fold enrichment (log2) [1]	fold enrichment (log2) [2]
AAV9 K449R 7-mer variant QTLFKNI	-0.72 log2	3.07 log2
AAV9 K449R 7-mer variant SSEKPFQ	-3.55 log2	2.69 log2
AAV9 K449R 7-mer variant STTFKDI	-3.32 log2	3.44 log2
AAV9 K449R 7-mer variant MNIGYSA	2.4 log2	-1.48 log2
AAV9 K449R 7-mer variant VPRYGSS	3.55 log2	-1.01 log2
AAV9 K449R 7-mer variant VAVFKNV	-0.91 log2	4.23 log2
AAV9 K449R 7-mer variant TTMKPFN	-3.74 log2	2.95 log2
AAV9 K449R 7-mer variant TLAYPFK	-0.72 log2	3.93 log2
AAV9 K449R 7-mer variant AISAPFK	-0.06 log2	2.56 log2
AAV9 K449R 7-mer variant SHTKPFA	0.97 log2	4.79 log2
AAV9 K449R 7-mer variant DKYNFSS	3.43 log2	-0.13 log2
AAV9 K449R 7-mer variant DKAWGST	3.56 log2	0.19 log2
AAV9 K449R 7-mer variant NKVGYST	3.13 log2	-3.74 log2
AAV9 K449R 7-mer variant EKKQYSS	4.45 log2	0.89 log2
AAV9 K449R 7-mer variant TQQGYSS	5.8 log2	-0.92 log2
AAV9 K449R 7-mer variant AGSFKDI	-2.87 log2	3.96 log2
AAV9 K449R 7-mer variant SYQGYSS	5.21 log2	1.47 log2
AAV9 K449R 7-mer variant ALHVPFK	0.26 log2	4.11 log2
AAV9 K449R 7-mer variant SQKTPFL	-3.55 log2	3.81 log2
AAV9 K449R 7-mer variant DVKYGSS	4.92 log2	-0.36 log2
AAV9 K449R 7-mer variant LTKWEST	3.91 log2	0.82 log2
AAV9 K449R 7-mer variant LWAKGST	3.9 log2	1.42 log2
AAV9 K449R 7-mer variant TRTSGAS	3.85 log2	0.43 log2

Substance	fold enrichment (log2) [1]	fold enrichment (log2) [2]
AAV9 K449R 7-mer variant VRPGWST	5.89 log2	1.02 log2
AAV9 K449R 7-mer variant LAHTYSS	3.97 log2	0.04 log2
AAV9 K449R 7-mer variant IATGYSQ	2.18 log2	-3.74 log2
AAV9 K449R 7-mer variant MMAKPFL	-0.49 log2	4.53 log2
AAV9 K449R 7-mer variant GNENFSS	3.45 log2	-1.43 log2
AAV9 K449R 7-mer variant IVRGLSS	3.24 log2	-1.14 log2
AAV9 K449R 7-mer variant KTQFKDV	-3.55 log2	2.09 log2
AAV9 K449R 7-mer variant QSAGYST	2.55 log2	-1.58 log2
AAV9 K449R 7-mer variant NMERPFR	0.95 log2	2.96 log2
AAV9 K449R 7-mer variant TSMKPFL	-0.98 log2	3.49 log2
AAV9 K449R 7-mer variant ESRGFSS	4.7 log2	-0.58 log2
AAV9 K449R 7-mer variant LRGGYST	2.88 log2	-3.32 log2
AAV9 K449R 7-mer variant SLDFKNI	-1.29 log2	4.61 log2
AAV9 K449R 7-mer variant GKHFSST	4.25 log2	2.64 log2
AAV9 K449R 7-mer variant VAERPFK	1.22 log2	6.38 log2
AAV9 K449R 7-mer variant NGYKGST	4.98 log2	1.24 log2
AAV9 K449R 7-mer variant DRKGYSA	2.77 log2	-0.39 log2
AAV9 K449R 7-mer variant EIRGYSS	4.92 log2	0.75 log2
AAV9 K449R 7-mer variant ALAKPFI	-0.19 log2	1.91 log2
AAV9 K449R 7-mer variant TDTRPFI	-3.32 log2	4.19 log2
AAV9 K449R 7-mer variant NYTGYSS	4.83 log2 and 4.44 log2	

Source: patent publication US20220143214A1
